From US20240199695A1 (TRANSFERT PLUS S E C, published 2024)
Non-standard residues stand in square brackets, D forms with d. No end group written: not given here. *: point of attachment. curcumin = curcumin, a phytochemical attached to the lysine side chains; Biotin = O=C1N[C@H]2[C@H](CS[C@H]2CCCCC(=O)*)N1; Nle = CCCC[C@H](N)C(=O)O

Assays:
[1] = molecular target: T1, sortilin expressed on cancer cells (SKOV3, ES-2 ovarian cancer cells) (UniProt Q99523 78-831, limits assumed)
T1 sequence (looked up): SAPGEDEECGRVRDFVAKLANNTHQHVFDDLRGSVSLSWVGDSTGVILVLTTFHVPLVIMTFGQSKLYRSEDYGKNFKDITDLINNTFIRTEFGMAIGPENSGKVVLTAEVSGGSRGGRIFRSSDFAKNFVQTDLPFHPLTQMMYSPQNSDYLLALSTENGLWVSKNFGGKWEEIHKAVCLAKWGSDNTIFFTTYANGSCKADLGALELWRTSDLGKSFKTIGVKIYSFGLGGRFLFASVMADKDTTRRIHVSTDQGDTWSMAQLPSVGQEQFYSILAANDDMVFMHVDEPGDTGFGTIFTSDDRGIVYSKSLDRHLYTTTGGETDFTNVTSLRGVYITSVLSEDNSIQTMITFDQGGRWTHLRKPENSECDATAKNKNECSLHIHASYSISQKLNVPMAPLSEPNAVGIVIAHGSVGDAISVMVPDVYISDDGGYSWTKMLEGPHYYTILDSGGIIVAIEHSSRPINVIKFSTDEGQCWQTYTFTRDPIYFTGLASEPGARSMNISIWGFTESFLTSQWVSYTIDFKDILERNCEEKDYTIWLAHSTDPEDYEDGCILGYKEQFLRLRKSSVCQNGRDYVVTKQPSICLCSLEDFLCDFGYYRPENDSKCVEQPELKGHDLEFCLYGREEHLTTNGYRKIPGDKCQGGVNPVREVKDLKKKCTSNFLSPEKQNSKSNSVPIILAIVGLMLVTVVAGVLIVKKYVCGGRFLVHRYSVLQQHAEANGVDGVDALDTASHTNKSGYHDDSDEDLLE

[2] = molecular target: T1, sortilin expressed on cancer cells …; remark: listed apart in the source
[3] = molecular target: T1, sortilin expressed on cancer cells …; remark: listed apart in the source
[4] = molecular target: T1, sortilin expressed on cancer cells …; remark: listed apart in the source
[5] = molecular target: T1, sortilin expressed on cancer cells …; assay: cell-based or functional assay
soluble form of sortilin = molecular target: T2, soluble form of sortilin (UniProt Q99523 78-755, limits assumed); assay: SPR; biotinylated KBP-103 on a streptavidin chip, soluble sortilin injected
T2 construct: also called soluble sortilin; receptor sortilin
T2 sequence (looked up): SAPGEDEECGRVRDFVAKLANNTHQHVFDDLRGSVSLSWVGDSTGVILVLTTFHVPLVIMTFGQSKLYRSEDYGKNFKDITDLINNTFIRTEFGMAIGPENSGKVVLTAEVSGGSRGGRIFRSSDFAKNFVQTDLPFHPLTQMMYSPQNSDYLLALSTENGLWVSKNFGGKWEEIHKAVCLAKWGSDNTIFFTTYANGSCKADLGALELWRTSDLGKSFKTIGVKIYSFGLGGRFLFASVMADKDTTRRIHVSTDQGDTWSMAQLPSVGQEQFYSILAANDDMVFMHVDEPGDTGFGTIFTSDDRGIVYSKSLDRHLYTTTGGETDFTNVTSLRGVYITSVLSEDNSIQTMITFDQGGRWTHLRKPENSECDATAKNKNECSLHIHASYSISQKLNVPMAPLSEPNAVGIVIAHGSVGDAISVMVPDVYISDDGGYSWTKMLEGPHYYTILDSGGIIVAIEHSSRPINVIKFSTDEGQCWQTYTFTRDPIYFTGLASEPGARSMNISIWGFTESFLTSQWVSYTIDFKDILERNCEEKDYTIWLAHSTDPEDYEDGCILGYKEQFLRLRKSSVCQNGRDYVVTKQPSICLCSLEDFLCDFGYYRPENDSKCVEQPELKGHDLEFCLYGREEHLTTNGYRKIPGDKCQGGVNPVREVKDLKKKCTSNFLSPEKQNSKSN
Protocol: Biotinylated Katana peptide was immobilized on a streptavidin sensor chip. A. Soluble sortilin was then injected over the immobilized peptide. The surface plasmon resonance signal was then monitored over time.
Surface plasmon resonance (SPR) was first used to investigate whether these peptides could be recognized by sortilin. For this approach, biotin was added on the C-terminal end of the Katana-Biopharma peptide during peptide synthesis. The biotinylated-peptide (KBP-103) was then immobilized on a streptavidin sensor chip using recommended procedures from the manufacturer. Increasing concentrations of a soluble form of sortilin was then injected over the sensor chip. Interactions between immobilized KBP-103 and the receptor sortilin was then monitored in real time. A representative interaction curve is shown in FIG. 1, and from the sensorgram curves the affinity constant as well as Ka and Kd were determined and are indicated in Table 2. Affinity constants (KD, […]) were extracted from various injections using the BIA evaluation software.

Neurotensin (from UniProt P30990 151-163) (peptide)
decrease of the late apoptosis induced by 2 uM KBA-105 in SKOV3/Luc cells by 10 uM NT [1]: 47.5% | inhibition of KBC106 fluorescence intensity (RFU) in ES-2 cells by neurotensin (bar NT) [continued) C] [2]: 52% | decrease of the late apoptosis induced by 2 uM KBA-201 in SKOV3 cells by 10 uM NT [3]: 45.5%

Progranulin (from UniProt P28799 18-593) (ligand)
inhibition of KBC106 fluorescence intensity (RFU) in ES-2 cells by progranulin [continued) C] [2]: 81.5% | inhibition of KBB106 accumulation (% of control) in ovarian cancer cells by progranulin [4]: 52% | decrease of the late apoptosis induced by 2 uM KBA-201 in SKOV3 cells by 1.2 nM progranulin [3]: 55%

B1: KBC-106 (2:1): Acetyl-GVRAK(curcumin)AGVRN(Nle)FK(curcumin)SESY (peptide)
peptide: Ac-GVRAK(curcumin)AGVRN[Nle]FK(curcumin)SESY
relative fluorescence (RFU) of ES-2 cells after KBC106 against unconjugated curcumin (live imaging) [5]: 2.3 fold

B2: KBP-103: IKLSGGVQAKAGVINMFKSESYK(Biotin) (peptide)
peptide: IKLSGGVQAKAGVINMFKSESYK(Biotin)
notes: Immobilised on a streptavidin sensor chip in the SPR assay; also called biotinylated-peptide; Katana peptide
Kd (soluble form of sortilin): 25.5 nM | koff (soluble form of sortilin): 0.0174 s⁻¹ | kon (soluble form of sortilin): 683000 M⁻¹ s⁻¹
